This data set has as its system GST-NR2F6 fusion protein, wild-type, full-length (purified recombinant).

GST-NR2F6 fusion protein, wild-type, full-length (purified recombinant), sequence (chain, as listed by the source): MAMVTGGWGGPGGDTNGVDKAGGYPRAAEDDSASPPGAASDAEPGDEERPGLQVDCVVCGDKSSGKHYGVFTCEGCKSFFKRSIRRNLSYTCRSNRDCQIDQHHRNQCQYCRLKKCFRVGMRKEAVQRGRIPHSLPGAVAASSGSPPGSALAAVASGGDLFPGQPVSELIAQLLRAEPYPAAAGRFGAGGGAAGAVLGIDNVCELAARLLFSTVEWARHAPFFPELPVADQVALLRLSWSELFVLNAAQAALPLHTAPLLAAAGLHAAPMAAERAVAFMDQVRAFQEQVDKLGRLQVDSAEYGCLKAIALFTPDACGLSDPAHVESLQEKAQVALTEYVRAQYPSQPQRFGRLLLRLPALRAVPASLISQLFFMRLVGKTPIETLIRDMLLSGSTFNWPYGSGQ

B1: recombinant PKCzeta (enzyme, UniProt Q05513 1-592, looked up, species assumed)
Protein kinase C zeta type: MPSRTGPKMEGSGGRVRLKAHYGGDIFITSVDAATTFEELCEEVRDMCRLHQQHPLTLKWVDSEGDPCTVSSQMELEEAFRLARQCRDEGLIIHVFPSTPEQPGLPCPGEDKSIYRRGARRWRKLYRANGHLFQAKRFNRRAYCGQCSERIWGLARQGYRCINCKLLVHKRCHGLVPLTCRKHMDSVMPSQEPPVDDKNEDADLPSEETDGIAYISSSRKHDSIKDDSEDLKPVIDGMDGIKISQGLGLQDFDLIRVIGRGSYAKVLLVRLKKNDQIYAMKVVKKELVHDDEDIDWVQTEKHVFEQASSNPFLVGLHSCFQTTSRLFLVIEYVNGGDLMFHMQRQRKLPEEHARFYAAEICIALNFLHERGIIYRDLKLDNVLLDADGHIKLTDYGMCKEGLGPGDTTSTFCGTPNYIAPEILRGEEYGFSVDWWALGVLMFEMMAGRSPFDIITDNPDMNTEDYLFQVILEKPIRIPRFLSVKASHVLKGFLNKDPKERLGCRPQTGFSDIKSHAFFRSIDWDLLEKKQALPPFQPQITDDYGLDNFDTQFTSEPVQLTPDDEDAIKRIDQSEFEGFEYINPLLLSTEESV
Consider B1, for which the “in vitro protein kinase assay (32P incorporation into GST-NR2F6)” value was “(but not PKCzeta or PKA) were able to phosphorylate recombinant NR2F6 in vitro”.

Values taken from patent US20110239311.
